Biological target: the molecule itself
Test: AUC

B1: VapC22 toxin from Mycobacterium tuberculosis, expressed alone from a modified pBAD/Myc-His vector (enzyme)
chain: MTTVLLDSHVAYWWSAEPQRLSMAASQAIEHADELAVAAISWFELAWLAEQERIQLAIPVLSWLQQLAEHVRTVGITPSVAATAVALPSSFPGDPADRLIYATAIEHGWRLVTKDRRLRSHRHPRPVTVW
stoichiometry N: 2

From publication PMC7269643 (Science Advances, 2020)
